For assay [1], the target named is M13 bacteriophage incorporated into PEDOT nanowires (M13 bacteriophage). The assay can be described thus: electrical resistance of virus-PEDOT nanowire array in PBF.
Assay [2] has the same target. The assay can be described thus: electrical resistance of virus-PEDOT nanowire array in PBF, 99 nM antibody.

Regarding “Anti-M13 antibody (p-Ab, GE Healthcare Life Sciences)”, in assay [1], the limit of detection was determined as 20 nM. The increase in the resistance (ΔR/R0) at 99 nM antibody in assay [2] stood at 40%.
